The test system of test [1] is target DNA. Briefly: SaCas9 DNA cleavage activity, mutational analysis. It is filed as biochemical.
Test [2] concerns target DNA. As to the kind of experiment: SpCas9 DNA cleavage activity, mutational analysis. It is filed as biochemical. The note with it: 5′-NGG PAM (5′-GGGCT).

B1: SaCas9 T787A (protein, UniProt J7RUA5 1-1053, looked up, variant T787A)
CRISPR-associated …: MKRNYILGLDIGITSVGYGIIDYETRDVIDAGVRLFKEANVENNEGRRSKRGARRLKRRRRHRIQRVKKLLFDYNLLTDHSELSGINPYEARVKGLSQKLSEEEFSAALLHLAKRRGVHNVNEVEEDTGNELSTKEQISRNSKALEEKYVAELQLERLKKDGEVRGSINRFKTSDYVKEAKQLLKVQKAYHQLDQSFIDTYIDLLETRRTYYEGPGEGSPFGWKDIKEWYEMLMGHCTYFPEELRSVKYAYNADLYNALNDLNNLVITRDENEKLEYYEKFQIIENVFKQKKKPTLKQIAKEILVNEEDIKGYRVTSTGKPEFTNLKVYHDIKDITARKEIIENAELLDQIAKILTIYQSSEDIQEELTNLNSELTQEEIEQISNLKGYTGTHNLSLKAINLILDELWHTNDNQIAIFNRLKLVPKKVDLSQQKEIPTTLVDDFILSPVVKRSFIQSIKVINAIIKKYGLPNDIIIELAREKNSKDAQKMINEMQKRNRQTNERIEEIIRTTGKENAKYLIEKIKLHDMQEGKCLYSLEAIPLEDLLNNPFNYEVDHIIPRSVSFDNSFNNKVLVKQEENSKKGNRTPFQYLSSSDSKISYETFKKHILNLAKGKGRISKTKKEYLLEERDINRFSVQKDFINRNLVDTRYATRGLMNLLRSYFRVNNLDVKVKSINGGFTSFLRRKWKFKKERNKGYKHHAEDALIIANADFIFKEWKKLDKAKKVMENQMFEEKQAESMPEIETEQEYKEIFITPHQIKHIKDFKDYKYSHRVDKKPNRELINDALYSTRKDDKGNTLIVNNLNGLYDKDNDKLKKLINKSPEKLLMYHHDPQTYQKLKLIMEQYGDEKNPLYKYYEETGNYLTKYSKKDNGPVIKKIKYYGNKLNAHLDITDDYPNSRNKVVKLSLKPYRFDVYLDNGVYKFVTVKNLDVIKKENYYEVNSKCYEEAKKLKKISNQAEFIASFYNNDLIKINGELYRVIGVNNDLLNRIEVNMIDITYREYLENMNDKRPPRIIKTIASKTQSIKKYSTDILGNLYEVKSKKHPQIIKKG
Take B1: the DNA cleavage activity entry with target DNA [1] is given as “reduced DNA cleavage activity”.

B2: St3Cas9: Streptococcus thermophilus CRISPR-3 Cas9 (protein, UniProt G3ECR1 1-1409, looked up)
CRISPR-associated …: MLFNKCIIISINLDFSNKEKCMTKPYSIGLDIGTNSVGWAVITDNYKVPSKKMKVLGNTSKKYIKKNLLGVLLFDSGITAEGRRLKRTARRRYTRRRNRILYLQEIFSTEMATLDDAFFQRLDDSFLVPDDKRDSKYPIFGNLVEEKVYHDEFPTIYHLRKYLADSTKKADLRLVYLALAHMIKYRGHFLIEGEFNSKNNDIQKNFQDFLDTYNAIFESDLSLENSKQLEEIVKDKISKLEKKDRILKLFPGEKNSGIFSEFLKLIVGNQADFRKCFNLDEKASLHFSKESYDEDLETLLGYIGDDYSDVFLKAKKLYDAILLSGFLTVTDNETEAPLSSAMIKRYNEHKEDLALLKEYIRNISLKTYNEVFKDDTKNGYAGYIDGKTNQEDFYVYLKNLLAEFEGADYFLEKIDREDFLRKQRTFDNGSIPYQIHLQEMRAILDKQAKFYPFLAKNKERIEKILTFRIPYYVGPLARGNSDFAWSIRKRNEKITPWNFEDVIDKESSAEAFINRMTSFDLYLPEEKVLPKHSLLYETFNVYNELTKVRFIAESMRDYQFLDSKQKKDIVRLYFKDKRKVTDKDIIEYLHAIYGYDGIELKGIEKQFNSSLSTYHDLLNIINDKEFLDDSSNEAIIEEIIHTLTIFEDREMIKQRLSKFENIFDKSVLKKLSRRHYTGWGKLSAKLINGIRDEKSGNTILDYLIDDGISNRNFMQLIHDDALSFKKKIQKAQIIGDEDKGNIKEVVKSLPGSPAIKKGILQSIKIVDELVKVMGGRKPESIVVEMARENQYTNQGKSNSQQRLKRLEKSLKELGSKILKENIPAKLSKIDNNALQNDRLYLYYLQNGKDMYTGDDLDIDRLSNYDIDHIIPQAFLKDNSIDNKVLVSSASNRGKSDDFPSLEVVKKRKTFWYQLLKSKLISQRKFDNLTKAERGGLLPEDKAGFIQRQLVETRQITKHVARLLDEKFNNKKDENNRAVRTVKIITLKSTLVSQFRKDFELYKVREINDFHHAHDAYLNAVIASALLKKYPKLEPEFVYGDYPKYNSFRERKSATEKVYFYSNIMNIFKKSISLADGRVIERPLIEVNEETGESVWNKESDLATVRRVLSYPQVNVVKKVEEQNHGLDRGKPKGLFNANLSSKPKPNSNENLVGAKEYLDPKKYGGYAGISNSFAVLVKGTIEKGAKKKITNVLEFQGISILDRINYRKDKLNFLLEKGYKDIELIIELPKYSLFELSDGSRRMLASILSTNNKRGEIHKGNQIFLSQKFVKLLYHAKRISNTINENHRKYVENHKKEFEELFYYILEFNENYVGAKKNGKLLNSAFQSWQNHSIDELCSSFIGPTGSERKGLFELTSRGSAADFEFLGVKIPRYRDYTPSSLLKDATLIHQSVTGLYETRIDLAKLGEG
On to B2, for which the “cleavage of target DNA with 5′-NGG PAM” value in the test on target DNA [2] is “not”.

The values are drawn from patent publication US12227742B2, “Nucleic acid modifiers” (THE BROAD INSTITUTE, INC., priority 2017, dated 2025).
